From patent US20260049141A1 (OSE IMMUNOTHERAPEUTICS, published 2026)

Assays:
[1] = target: T1, Recombinant human CD28 (bio-techne, reference 342-CD-200) (human, UniProt P10747 19-152); experiment: SPR (Biacore T200), hCD28 immobilized on CM5, antibody flowed at 0-3000 nM, bivalent model fit
T1 construct: Bought protein; also called hCD28 recombinant protein; human recombinant CD28 protein
Protocol: (§1) hCD28 recombinant protein (bio-techne, reference 342-CD-200) was immobilized to the CM5 sensorship at 20 ug/mL in Na Acetate pH5 in the Biacore T200. […] The antigen-antibody association kinetics was followed for 2 minutes, and the dissociation kinetics was followed for 10 minutes. The association and dissociation curves were fit to a bivalent model.

[2] = target: Human CD28 expressed on Jurkat T cells (human, UniProt P10747 19-220); experiment: cell-based or functional assay
[3] = target: T2, Biotinylated human PD-1 (AcroBiosystems, reference EP-101) (human, UniProt Q15116 25-167, biotinylated); experiment: competitive ELISA: recombinant human PD-L1 immobilized, antibody mixed with a fixed concentration of biotinylated human PD-1, streptavidin-peroxidase; blocked ligand PD-L1
T2 construct: Kit reagent; called both biotinylated Human PD1 and Biotin-PD-1Fc; also called Biotin-PD-1Fc; not described
Protocol: (A) PD-1 binding ELISA assay. […] Revelation was performed using an anti-human Fc antibody coupled to peroxidase. Colorimetry was determined at 450 nm using TMB substrate. Data were normalized by the condition anti-PD-1*2 or anti-PD-1*1 at 20 nM; considered as 100% of binding for bivalent and monovalent figure respectively. N=2 independent experiments per condition. (B) Antagonist PD-1/PDL1 ELISA assay. […] Revelation was performed with a streptavidin coupled to peroxidase. Colorimetry was determined at 450 nm using TMB substrate. Percentage of antagonist activity was determined by the formula 100-((DO450 nM*100)/DO450 nM No Ab). N=2 independent experiments. (C) CD28 binding MSD assay. […] Revelation was performed with an anti-human Fc antibody coupled to SulfoTag. Electric signal was determined using MSD system. (D) Cis-activity Jurkat T cell-based bioassay. […] IL-2 secretion was quantified in the culture supernatant after 48 hours of stimulation and data were normalized by the condition without antibody. N=2-7 independent experiments.

[4] = target: T1, Recombinant human CD28 (bio-techne, …); experiment: SPR (Biacore T200), hCD28 immobilized on CM5, antibody flowed; monovalent anti-CD28 scFv (Format B1), not the bivalent anti-CD28 antibody
Protocol: as §1

T2 sequence (Q15116 25-167): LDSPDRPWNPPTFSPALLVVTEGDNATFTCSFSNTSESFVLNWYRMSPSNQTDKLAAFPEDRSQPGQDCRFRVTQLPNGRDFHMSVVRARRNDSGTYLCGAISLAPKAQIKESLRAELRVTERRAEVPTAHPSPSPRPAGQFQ

B1: anti-CD28 bivalent clone 1 antibody with no anti-PD-1 valency (antibody, V domains shown)
VH: QVKLQESGPGLVAPSQSLSITCTVSGFSLTSYGVYWVRQPPGKGLEWLGVIWAGGSTNYNSALMSRLSISKDNSKSQVFLKMNSLQTDDTAMYYCARDHYGSYGDYYAMDYWGQGTTVTVSS
VL: DIVLTQSPASLAVSLGQRATISCRASESVEYYDTSLMQWYQQKPGQPPKLLIYAASSVESGVPARFSGSGSGTDFSLNIHPVEEDDIAMYFCQQSRKVPWTFGGGTKLEIK
notes: also called bivalent anti-CD28 antibody; Bivalent anti-CD28 (positive control)
[1]
  Kd: 75 nM
  koff: 0.000842 s⁻¹
  kon: 11200 M⁻¹ s⁻¹

B2: Format B1 anti-PD-1*1/anti-CD28*1 scFv clone 2 (bispecific antibody)
chain 1: not shown
chain 2: PAPELLGGPSVFLFPPKPKDTLMISRTPEVTCVVVDVSHEDPEVKFNWYVDGVEVHNAKTKPREEQYASTYRVVSVLTVLHQDWLNGKEYKCKVSNKALPAPIEKTISKAKGQPREPQVYTLPPCRDELTKNQVSLWCLVKGFYPSDIAVEWESNGQPENNYKTTPPVLDSDGSFFLYSKLTVDKSRWQQGNVFSCSVMHEALHNHYTQKSLSLSPGK
VL: DVVMTQSPLSLPVTLGQPASISCRSSQSLVHANTNTYLEWYQQRPGQSPRLLIYKVSNRFSGVPDRFSGSGSGTDFTLKISRVEAEDVGVYYCFQGTHVPNTFGQGTKLEIK
[2]
  IL-2 secretion by PD-1 negative Jurkat T cells (cis-activity bioassay, 100 nM), fold versus no antibody: 4 fold

B3: anti-PD-1/anti-CD28 multifunctional molecule Format C5 (scFv anti-CD28 fused to C-terminal of bivalent anti-PD1, clone 1) (bispecific antibody, V domains shown)
VH 1: QIQLVQSGSELKKPGASVKVSCKASGYTFTHYAMNWVRQAPGQGLEWMGWINTNTGEPTYAQGFTGRFVFSLDTSVSTAYLQISSLKAEDTAVYYCAREREPGMDNWGQGTLVTVSS
VL 1: DVVMTQSPLSLPVTLGQPASISCRSSQSLVHANTNTYLEWYQQRPGQSPRLLIYKVSNRFSGVPDRFSGSGSGTDFTLKISRVEAEDVGVYYCFQGTHVPNTFGQGTKLEIK
VH 2: QVKLQESGPGLVAPSQSLSITCTVSGFSLTSYGVYWVRQPPGKGLEWLGVIWAGGSTNYNSALMSRLSISKDNSKSQVFLKMNSLQTDDTAMYYCARDHYGSYGDYYAMDYWGQGTTVTVSS
VL 2: DIVLTQSPASLAVSLGQRATISCRASESVEYYDTSLMQWYQQKPGQPPKLLIYAASSVESGVPARFSGSGSGTDFSLNIHPVEEDDIAMYFCQQSRKVPWTFGGGTKLEIK
[3]
  IC50 (read off the curve): ~0.3 nM

B4: anti-PD-1/anti-CD28 multifunctional molecule Format C1 (bivalent anti-PD-1 antibody fused to an anti-CD28 scFv, clone 1) (bispecific antibody, V domains shown)
VH 1: QIQLVQSGSELKKPGASVKVSCKASGYTFTHYAMNWVRQAPGQGLEWMGWINTNTGEPTYAQGFTGRFVFSLDTSVSTAYLQISSLKAEDTAVYYCAREREPGMDNWGQGTLVTVSS
VL 1: DVVMTQSPLSLPVTLGQPASISCRSSQSLVHANTNTYLEWYQQRPGQSPRLLIYKVSNRFSGVPDRFSGSGSGTDFTLKISRVEAEDVGVYYCFQGTHVPNTFGQGTKLEIK
VH 2: QVKLQESGPGLVAPSQSLSITCTVSGFSLTSYGVYWVRQPPGKGLEWLGVIWAGGSTNYNSALMSRLSISKDNSKSQVFLKMNSLQTDDTAMYYCARDHYGSYGDYYAMDYWGQGTTVTVSS
VL 2: DIVLTQSPASLAVSLGQRATISCRASESVEYYDTSLMQWYQQKPGQPPKLLIYAASSVESGVPARFSGSGSGTDFSLNIHPVEEDDIAMYFCQQSRKVPWTFGGGTKLEIK
notes: Full chains not tied to the label in the text
[3]
  IC50 (read off the curve): ~1 nM

B5: Format B1 anti-PD-1*1/anti-CD28*1 scFv clone 3 (bispecific antibody)
chain 1: not shown
chain 2: PAPELLGGPSVFLFPPKPKDTLMISRTPEVTCVVVDVSHEDPEVKFNWYVDGVEVHNAKTKPREEQYASTYRVVSVLTVLHQDWLNGKEYKCKVSNKALPAPIEKTISKAKGQPREPQVYTLPPCRDELTKNQVSLWCLVKGFYPSDIAVEWESNGQPENNYKTTPPVLDSDGSFFLYSKLTVDKSRWQQGNVFSCSVMHEALHNHYTQKSLSLSPGK
VL: DVVMTQSPLSLPVTLGQPASISCRSSQSLVHANTNTYLEWYQQRPGQSPRLLIYKVSNRFSGVPDRFSGSGSGTDFTLKISRVEAEDVGVYYCFQGTHVPNTFGQGTKLEIK
[2]
  IL-2 secretion by PD-1 negative Jurkat T cells (cis-activity bioassay, 100 nM), fold versus no antibody: 2 fold

B6: anti-PD-1/anti-CD28 multifunctional molecule Format B3 (scFv anti-CD28 fused to C-terminal of monovalent anti-PD1, clone 1) (bispecific antibody, V domains shown)
VH 1: QIQLVQSGSELKKPGASVKVSCKASGYTFTHYAMNWVRQAPGQGLEWMGWINTNTGEPTYAQGFTGRFVFSLDTSVSTAYLQISSLKAEDTAVYYCAREREPGMDNWGQGTLVTVSS
VL 1: DVVMTQSPLSLPVTLGQPASISCRSSQSLVHANTNTYLEWYQQRPGQSPRLLIYKVSNRFSGVPDRFSGSGSGTDFTLKISRVEAEDVGVYYCFQGTHVPNTFGQGTKLEIK
VH 2: QVKLQESGPGLVAPSQSLSITCTVSGFSLTSYGVYWVRQPPGKGLEWLGVIWAGGSTNYNSALMSRLSISKDNSKSQVFLKMNSLQTDDTAMYYCARDHYGSYGDYYAMDYWGQGTTVTVSS
VL 2: DIVLTQSPASLAVSLGQRATISCRASESVEYYDTSLMQWYQQKPGQPPKLLIYAASSVESGVPARFSGSGSGTDFSLNIHPVEEDDIAMYFCQQSRKVPWTFGGGTKLEIK
[3]
  IC50 (read off the curve): ~1 nM

B7: anti-PD-1/anti-CD28 multifunctional molecule Format C2 (bivalent anti-PD-1 antibody fused to an anti-CD28 scFv, clone 1) (bispecific antibody, V domains shown)
VH 1: QIQLVQSGSELKKPGASVKVSCKASGYTFTHYAMNWVRQAPGQGLEWMGWINTNTGEPTYAQGFTGRFVFSLDTSVSTAYLQISSLKAEDTAVYYCAREREPGMDNWGQGTLVTVSS
VL 1: DVVMTQSPLSLPVTLGQPASISCRSSQSLVHANTNTYLEWYQQRPGQSPRLLIYKVSNRFSGVPDRFSGSGSGTDFTLKISRVEAEDVGVYYCFQGTHVPNTFGQGTKLEIK
VH 2: QVKLQESGPGLVAPSQSLSITCTVSGFSLTSYGVYWVRQPPGKGLEWLGVIWAGGSTNYNSALMSRLSISKDNSKSQVFLKMNSLQTDDTAMYYCARDHYGSYGDYYAMDYWGQGTTVTVSS
VL 2: DIVLTQSPASLAVSLGQRATISCRASESVEYYDTSLMQWYQQKPGQPPKLLIYAASSVESGVPARFSGSGSGTDFSLNIHPVEEDDIAMYFCQQSRKVPWTFGGGTKLEIK
notes: See Format C1; full chains not tied to the label in the text
[3]
  IC50 (read off the curve): ~2 nM

B8: Anti PD-1*1/anti CD28*1 scFv Format B1 (anti-PD-1 clone 1 / anti-CD28 clone 1) (bispecific antibody, V domains shown)
VH 1: QIQLVQSGSELKKPGASVKVSCKASGYTFTHYAMNWVRQAPGQGLEWMGWINTNTGEPTYAQGFTGRFVFSLDTSVSTAYLQISSLKAEDTAVYYCAREREPGMDNWGQGTLVTVSS
VL 1: DVVMTQSPLSLPVTLGQPASISCRSSQSLVHANTNTYLEWYQQRPGQSPRLLIYKVSNRFSGVPDRFSGSGSGTDFTLKISRVEAEDVGVYYCFQGTHVPNTFGQGTKLEIK
VH 2: QVKLQESGPGLVAPSQSLSITCTVSGFSLTSYGVYWVRQPPGKGLEWLGVIWAGGSTNYNSALMSRLSISKDNSKSQVFLKMNSLQTDDTAMYYCARDHYGSYGDYYAMDYWGQGTTVTVSS
VL 2: DIVLTQSPASLAVSLGQRATISCRASESVEYYDTSLMQWYQQKPGQPPKLLIYAASSVESGVPARFSGSGSGTDFSLNIHPVEEDDIAMYFCQQSRKVPWTFGGGTKLEIK
notes: Only the variable domains are tied to the molecule by name; also called anti PD-1/anti CD28 (Format B1); anti-PD-1*1/anti-CD28*1 scFv clone 1
[1]
  Kd: 5400 nM
  koff: 0.0249 s⁻¹
  kon: 4620 M⁻¹ s⁻¹
[4]
  Kd: ~5 µM
[3]
  IC50 (read off the curve): ~1 nM
